Source: patent US20060067886A1, “Gastrin receptor-avid peptide conjugates” (priority 1997, published 2006)

Experiment: Biodistribution of radiometal-DOTA-BBN conjugates in CF1 normal mice
Conditions: 1 hour post-injection

SMILES | Avg % ID, Blood | Avg % ID, Carcass | Avg % ID, Heart | Avg % ID, Kidney | Avg % ID, L. Intestine | Avg % ID, Lung | Avg % ID, Muscle | Avg % ID, Pancreas | Avg % ID, S. Intestine | Avg % ID, Spleen | Avg % ID, Stomach | Avg % ID/gm, Blood | Avg % ID/gm, L. Intestine | Avg % ID/gm, Liver | Avg % ID/gm, Lung | Avg % ID/gm, Muscle | Avg % ID/gm, Pancreas | Avg % ID/gm, S. Intestine | Avg % ID/gm, Stomach | further results
CSCC[C@H](NC(=O)[C@H](CC(C)C)NC(=O)[C@H](Cc1cnc[nH]1)NC(=O)CNC(=O)[C@@H](NC(=O)[C@H](C)NC(=O)[C@H](Cc1c[nH]c2ccccc12)NC(=O)[C@H](CCC(N)=O)NC(=O)CCCCCCCNC(=O)CN1CCN(CC(=O)O)CCN(CC(=O)O)CCN(CC(=O)O)CC1)C(C)C)C(N)=O [149Pm-DOTA-8-Aoc-BBN[7-14]NH2] | 0.23 ± 0.26 % ID | 10.30 ± 1.84 % ID | 0.00 ± 0.01 % ID | 1.55 ± 0.47 % ID | 4.43 ± 2.37 % ID | 0.02 ± 0.04 % ID | 0.01 ± 0.02 % ID | 7.34 ± 3.51 % ID | 7.84 ± 2.15 % ID | 0.24 ± 0.06 % ID | 0.66 ± 0.35 % ID | 0.12 ± 0.13 % ID/gm | 4.14 ± 2.14 % ID/gm | 0.19 ± 0.12 % ID/gm | 0.09 ± 0.14 % ID/gm | 0.09 ± 0.21 % ID/gm | 28.29 ± 13.26 % ID/gm | 12.56 ± 16.70 % ID/gm |  | 
CSCC[C@H](NC(=O)[C@H](CC(C)C)NC(=O)[C@H](Cc1c[nH]cn1)NC(=O)CNC(=O)[C@@H](NC(=O)[C@H](C)NC(=O)[C@H](Cc1c[nH]c2ccccc12)NC(=O)[C@H](CCC(N)=O)NC(=O)CCCCNC(=O)CN1CCN(CC(=O)O)CCN(CC(=O)O)CCN(CC(=O)O)CC1)C(C)C)C(N)=O [177Lu-DOTA-5-Ava-BBN[7-14]NH2] [metal not drawn] | 0.35 ± 0.31 % ID | 2.77 ± 0.75 % ID | 0.04 ± 0.05 % ID | 0.69 ± 0.33 % ID | 3.52 ± 1.37 % ID | 0.08 ± 0.15 % ID | 0.09 ± 0.12 % ID | 3.78 ± 1.09 % ID | 3.80 ± 1.87 % ID | 0.18 ± 0.12 % ID | 0.73 ± 1.33 % ID | 0.22 ± 0.19 % ID/gm | 3.78 ± 1.23 % ID/gm | 0.09 ± 0.04 % ID/gm | 0.47 ± 0.84 % ID/gm | 0.67 ± 0.90 % ID/gm | 16.41 ± 1.38 % ID/gm | 2.55 ± 1.31 % ID/gm | 1.48 ± 2.25 % ID/gm | Avg % ID, Liver: 0.14 ± 0.06 % ID; Avg % ID/gm, Heart: 0.34 ± 0.35 % ID/gm; Avg % ID/gm, Kidney: 2.03 ± 1.02 % ID/gm; Avg % ID/gm, Spleen: 1.26 ± 0.69 % ID/gm
CSCC[C@H](NC(=O)[C@H](CC(C)C)NC(=O)[C@H](Cc1cnc[nH]1)NC(=O)CNC(=O)[C@@H](NC(=O)[C@H](C)NC(=O)[C@H](Cc1c[nH]c2ccccc12)NC(=O)[C@H](CCC(N)=O)NC(=O)CN1CCN(CC(=O)O)CCN(CC(=O)O)CCN(CC(=O)O)CC1)C(C)C)C(N)=O [111In-DOTA-0-BBN[7-14]NH2] [metal not drawn] |  | 1.78 ± 0.37 % ID |  |  | 0.10 ± 0.02 % ID |  |  |  | 0.25 ± 0.04 % ID |  |  | 0.10 ± 0.03 % ID/gm |  |  |  | 0.03 ± 0.02 % ID/gm |  | 0.44 ± 0.64 % ID/gm | 0.06 ± 0.03 % ID/gm | 
